Source: patent US20070048219A1

Molecular target: IL-8 receptors on human neutrophils
Assay: unlabeled IL-8 displaces 125I-IL-8 from IL-8 receptors on human neutrophils; value in the legend box without a column head, IC50

- IC50: 0.078 nM
Substance: recombinant human IL-8, (ser-IL-8)72 (from UniProt P10145 28-99) (ligand)
